Results: the DeepSol protein solubility set

Test: soluble on expression in E. coli; label from the status in PepcDB or PDB records

Row | Sequence | soluble on expression in E. coli
1 | MDNIKIIVASDSIGETAELVARAGVSQFNPKQCKHEFLRYPYIESFENVDEVIQVAKDTNAIIVYTLIKPEIKKYMISKVNEHALKSVDIMGPLMELLSNSIEETPYYEPGMVHRLDDAYFKKIDAIEFAVKYDDGKDPKGLPKADIVLLGISRTSKTPLSQYLAHKSYKVMNIPIVPEVTPPDGLFNVDPSKCIALKISEEKLNRIRKERLKQLGLGDKARYATEARIQEELDYFEKLVDKIGCPVIDVSDKAIEETANDIIHFIEQNKSKLEHHHHHH | soluble
2 | MTPSRPSPDFPDGGFVQVRGARQHNLKDISVKVPRDALVVFTGVSGSGKSSLAFGTLYAEAQRRYLESVSPYARRLFNQAGVPDVDAIDGLPPAVALQQARGTPTARSSVGSVTTLSNLLRMLYSRAGDYPPGQGIVYAEGFSPNTPEGACPECHGLGRVYTVTEDSMVPDPSLTIRERAVAAWPQAWGGQNQRDILVTLGIDVDVPWRELPEETRHWILFTDEQPVVPVYPGLTPAETQRALKKKMEPSYMGTFSSARRHVLHTFANTESASMKKRVQGYMISEECPLCHGKRLRQEALNVTFAGLDITELSRLPLARVSELLRPYAEEREPGHAERVKNRPEQAIALQRMAADLVKRLDVLLHLGLGYLGLDRSTPTLSPGELQRLRLATQLYSNLFGVVYVLDEPSAGLHPADTEALLSALENLKRGGNSLFVVEHDLDVIRRADWLVDVGPEAGEKGGEILYSGPPEGLKHVPESQTGQYLFADRHTEPHTPREPAGWLELNGVTRNNLDNLDVRFPLGVMTSVTGVSGSGKSTLVSQALVDALAAHFGQPVNPDPEDDEDPADHTAGSARLGGDLAQITRLVRVDQKPIGRTPRSNMATYTGLFDQVRKLFAATPLAKKRGYNAGRFSFNVKGGRCEHCQGEGWVMVELLFLPSVYAPCPVCHGTRYNAETLEVEYRGKNIADVLALTVDEAHDFFADESAIFRALDTLREVGLGYLRLGQPATELSGGEAQRIKLATELRRSGRGGTVYVLDEPTTGLHPADVERLQRQLVKLVDAGNTVIAVEHKMQVVAASDWVLDIGPGAGEDGGRLVAQGTPAEVAQAAGSVTAPYLRAALR | soluble
3 | MPVAHVALPVPLPRTFDYLLPEGMTVKAGCRVRVPFGKQQERIGIVVSVSDASELPLNELKAVVEVLDSEPVFTHSVWRLLLWAADYYHHPIGDVLFHALPILLRQGRPAANAPMWYWFATEQGQAVDLNSLKRSPKQQQALAALRQGKIWRDQVATLEFNDAALQALRKKGLCDLASETPEFSDWRTNYAVSGERLRLNTEQATAVGAIHSAADTFSAWLLAGVTGSGKTEVYLSVLENVLAQGKQALVMVPEIGLTPQTIARFRERFNAPVEVLHSGLNDSERLSAWLKAKNGEAAIVIGTRSALFTPFKNLGVIVIDEEHDSSYKQQEGWRYHARDLAVYRAHSEQIPIILGSATPALETLCNVQQKKYRLLRLTRRAGNARPAIQHVLDLKGQKVQAGLAPALITRMRQHLQADNQVILFLNRRGFAPALLCHDCGWIAECPRCDHYYTLHQAQHHLRCHHCDSQRPVPRQCPSCGSTHLVPVGLGTEQLEQTLAPLFPGVPISRIDRDTTSRKGALEQQLAEVHRGGARILIGTQMLAKGHHFPDVTLVALLDVDGALFSADFRSAERFAQLYTQVAGRAGRAGKQGEVVLQTHHPEHPLLQTLLYKGYDAFAEQALAERRMMQLPPWTSHVIVRAEDHNNQHAPLFLQQLRNLILSSPLADEKLWVLGPVPALAPKRGGRWRWQILLQHPSRVRLQHIINGTLALINTIPDSRKVKWVLDVDPIEG | soluble
4 | MMIKIAVVGSKEFMENLFPIAQKLEGIEIDPYIYLHPAESSELLKCLKPCDVIFFSGALPYYMAKEIREQLRIPSTYLQQDETTVASSILSIMYHQSIQPHNISIDLVDRSFITNVFHDIGIKESPQVLDYENMLWSKDEINRVIDFHVAKYQYGEAHLALTSIHAVYDELQKIGIPSERMIDPTQSIIHGLKDAKIKAELAKSYSATVGACIISSLELRASLLEKLDVISKELRGSFKQVDEMTCILYTTRGDIESIIKTNAIDNLFASIEGTIAIGFGYGKTVKEAEQNAKIAQSFAKNYPIDRCFYILASDKDLFGPFPKEQRVQSLKNDNPELMKIAKETKLSPANLSKIIQFSQSHPSLKFTAADLSEYLQVTRRSTERLLKKLVDYGYAHICGEEMPYQQGRPRALYELNFPLFLSF | not soluble
5 | MGSDKIHHHHHHMMSYVRMTLYHGTDRKSAEKIMESKEILPSQGDNHWLGDGIYFYEEEFHAFKWIWYKEKNRNRLLKNFAIIKAEVICEESRIFDLTKIEHKLLFDMMYKLINTTKLRLDKLRGDMCAEGVVINYMFKNKELGYNKRFDIVRALFPIPVKKYQKIENREKNKKYKERTHRLTFMPEIQVCVKNPSVIKKLEWYDLEKTIDKFLIYTEIYKEDLGI | not soluble
6 | MGACPRFERASARGMIARNPIKQDPAMRNTQDDHSRFLSLVLRHQPETIGLQLDDQGWADIGELLARLAAKGRNLGRKQLEKIVLDNDKQRFAISEDGLRIRANQGHSIKIDLGLAACEPPDRLYHGTASRFLDAILAEGLRPGQRQHVHLSADGQTARKVGARHGKPVVLEIDARAMRQAGLAFYRSDNGVWLIDGVPPVFIRQTEARLEHHHHHH | soluble
7 | MNSQQDLTMHNRSAAILLRPAAALYGMVMSLRNCLYDQGIFKSWHSPIPVVSVGNITTGGTGKTPLVDWIVKFYEASGIATAIVSRGYGRRTKGVQLVSDGGRLLLGSRDAGDETAMLAARNPRTIVVVAEKRVEGVQFLMHQFADRLPGVIVLDDAFQHRKIARDLDIVVVNAGAPEEIDAMLPAGRLREPLRGLRRAHLIILGKITDDANSATLLQTLRETGKPVIRSKIKPGKLIHVDGSENETNESVKTLAFAGIGAPEGFLHSLKTAGIKIAATKFFRDHEPYTESAIRSIIGEAKRQGLVPVTTEKDWFRIADEPELAEMLRQVGCRYLTITPEFPDGTQELERQLLDVLKRLEHHHHHH | not soluble
8 | IEEGKIVFAVGGAPNEIEYWKGVIAEFEKKYPGVTVELKRQATDTEQRRLDLVNALRGKSSDPDVFLMDVAWLGQFIASGWLEPLDDYVQKDNYDLSVFFQSVINLADKQGGKLYALPVYIDAGLLYYRKDLLEKYGYSKPPETWQELVEMAQKIQSGERETNPNFWGFVWQGKQYEGLVCDFVEYVYSNGGSLGEFKDGKWVPTLNKPENVEALQFMVDLIHKYKISPPNTYTEMTEEPVRLMFQQGNAAFERNWPYAWGLHNADDSPVKGKVGVAPLPHFPGHKSAATLGGWHIGISKYSDNKALAWEFVKFVESYSVQKGFAMNLGWNPGRVDVYDDPAVVSKSPHLKELRAVFENAVPRPIVPYYPQLSEIIQKYVNSALAGKISPQEALDKAQKEAEELVKQYS | soluble
9 | AIAARRNYQVERNKLEEKDPTWLMQKGQIQPLVSSLVVLNVEGERILARYTAKELFPTFDVEKKFEADLLKKSQTIPDLEERVFEHGQHIVVCRASEDLLFFVTSRIYENEVILSEVLTCWVDSLVKVLKNLPLNELNLLQHYEVLLLLVDELVDQEGVIMETDANELSSRTEFAMYSTDPRDLIPELTEQGFSHALQTAKQHLARTILK | soluble
10 | MGSDKIHHHHHHLEQQAIVANNLANASTTGFRAQLATFRAVPMSFGDGSSINDNTTRTFVLSSTPGADYTPGPIQQTGNPLDVAIQGPGWLAVQTADGGEAYTRAGNLHIDENGQLVNATNQVVLGNGGPVSVPPGAEITIGKDGTVSALTPGDPPTAVVTVDQLKLVNPDPQTMTRGDDGLFRTGDGNPADADPTVTLAPASLEGSNVNPVSAMVSMITNARQFQMQTKLLESADKNDQSANQLLSFS | not soluble
11 | MKSQLRKKTLEALSALSNEDILQKTERMYKYLFSLPEWQNAGTIAVTISRGLEIPTRPVIEQAWEEGKQVCIPKCHPDTKKMQFRTYQTDDQLETVYAGLLEPVIEKTKEVNPSQIDLMIVPGVCFDVNGFRVGFGGGYYDRYLSEYEGKTVSLLLECQLFAHVPRLPHDIPVHKLITEDRIISCFSLEHHHHHH | soluble
